Test results as given in patent US20100196282A1, “OPTICAL IMAGING AGENTS” (priority 2007, published 2010).
Where a SMILES comes first, the peptide text is derived from it. Bridges are numbered along the chain shown (N, C = ends). The star is where a group is joined. X3 = CCN(CCCS(=O)(=O)O)c1ccc2c(c1)OC(C(C)(C)C)=C/C2=C\C=C\C1=[N+](CCCCCC(=O)*)c2ccc(S(=O)(=O)[O-])cc2C1(C)C

Columns and labels:
human c-Met/Fc chimera = target: T1, human c-Met/Fc chimera (Homo sapiens, UniProt P08581); assay: Fluorescence polarisation assay, affinity binding to cMet; conditions: 5 nM dye-labelled peptide, c-Met/Fc 0-250 nM, 10 min at 30° C., one-site binding
T1 construct: Fc (immunoglobulin Fc fusion partner); purchased R&D Systems
T1 sequence (P08581 with tags, fused parts or gaps limits assumed): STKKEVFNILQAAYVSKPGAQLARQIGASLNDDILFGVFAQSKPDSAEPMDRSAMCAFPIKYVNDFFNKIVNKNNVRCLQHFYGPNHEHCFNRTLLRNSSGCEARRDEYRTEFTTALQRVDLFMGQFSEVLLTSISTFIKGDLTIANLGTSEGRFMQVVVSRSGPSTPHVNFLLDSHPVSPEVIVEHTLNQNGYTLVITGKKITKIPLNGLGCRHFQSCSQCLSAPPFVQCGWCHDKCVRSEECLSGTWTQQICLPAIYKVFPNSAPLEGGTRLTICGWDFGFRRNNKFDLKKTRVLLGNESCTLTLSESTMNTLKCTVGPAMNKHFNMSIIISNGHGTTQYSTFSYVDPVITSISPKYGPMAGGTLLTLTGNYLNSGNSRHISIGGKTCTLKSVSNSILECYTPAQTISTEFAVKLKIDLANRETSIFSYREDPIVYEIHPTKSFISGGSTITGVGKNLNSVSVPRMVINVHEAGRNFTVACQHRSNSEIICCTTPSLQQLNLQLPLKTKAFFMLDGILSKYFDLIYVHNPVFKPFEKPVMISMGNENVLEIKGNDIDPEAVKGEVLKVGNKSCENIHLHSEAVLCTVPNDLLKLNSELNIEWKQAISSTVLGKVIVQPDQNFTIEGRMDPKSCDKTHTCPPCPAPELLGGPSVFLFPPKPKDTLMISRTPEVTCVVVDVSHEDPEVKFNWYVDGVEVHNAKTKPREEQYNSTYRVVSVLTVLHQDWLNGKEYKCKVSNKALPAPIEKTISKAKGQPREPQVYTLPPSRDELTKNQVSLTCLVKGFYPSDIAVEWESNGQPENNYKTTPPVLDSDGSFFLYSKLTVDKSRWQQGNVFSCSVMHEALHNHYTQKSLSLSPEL
T1 sequence (P08581 25-307 limits assumed, change not shown): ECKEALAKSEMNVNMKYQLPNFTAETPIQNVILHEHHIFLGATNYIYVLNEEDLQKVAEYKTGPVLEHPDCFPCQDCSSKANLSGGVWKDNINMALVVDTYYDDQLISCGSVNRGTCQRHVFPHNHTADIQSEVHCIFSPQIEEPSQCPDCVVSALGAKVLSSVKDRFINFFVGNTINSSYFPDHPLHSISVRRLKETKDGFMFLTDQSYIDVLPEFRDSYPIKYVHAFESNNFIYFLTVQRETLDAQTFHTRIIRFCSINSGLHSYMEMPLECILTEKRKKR
Description: Monochromatic light passes through a […] polarizing filter and excites fluorescent molecules in the sample. Only those molecules that oriented properly in the vertically polarized plane adsorb light, become excited, and subsequently emit light. The emitted light is measured in both horizontal and vertical planes. The anisotropy value (A), is the ratio between the light intensities following the equation
The fluorescence anisotropy measurements were performed in 384-well microplates in a volume of 10 μL in binding buffer (PBS, 0.01% Tween-20, pH 7.5) using a Tecan Safire fluorescence polarisation plate reader (Tecan, US) at Ex 635/Em 678 nm. The concentration of dye-labelled peptide was held constant (5 nM) and the concentration of the human c-Met/Fc chimera (R&D Systems) was varied from 0-250 nM. Binding mixtures were equilibrated in the microplate for 10 min at 30° C. The observed change in anisotropy was fitted to the equation: […]
where robs is the observed anisotropy, rfree is the anisotropy of the free peptide, rbound is the anisotropy of the bound peptide, Kd is the dissociation constant, cMet is the total c-Met concentration, and P is the total dye-labelled peptide concentration. The equation assumes that the synthetic peptide and the receptor form a reversible complex in solution with 1:1 stoichiometry. Data fitting was done via nonlinear regression using SigmaPlot software to obtain the Kd value (one-site binding).
Compounds 1 to 6 were tested for binding towards human c-Met (Fc chimera).

human serum albumin [1] = target: T2, human serum albumin (Homo sapiens, UniProt P02768); assay: in vitro
T2 sequence (P02768 25-609): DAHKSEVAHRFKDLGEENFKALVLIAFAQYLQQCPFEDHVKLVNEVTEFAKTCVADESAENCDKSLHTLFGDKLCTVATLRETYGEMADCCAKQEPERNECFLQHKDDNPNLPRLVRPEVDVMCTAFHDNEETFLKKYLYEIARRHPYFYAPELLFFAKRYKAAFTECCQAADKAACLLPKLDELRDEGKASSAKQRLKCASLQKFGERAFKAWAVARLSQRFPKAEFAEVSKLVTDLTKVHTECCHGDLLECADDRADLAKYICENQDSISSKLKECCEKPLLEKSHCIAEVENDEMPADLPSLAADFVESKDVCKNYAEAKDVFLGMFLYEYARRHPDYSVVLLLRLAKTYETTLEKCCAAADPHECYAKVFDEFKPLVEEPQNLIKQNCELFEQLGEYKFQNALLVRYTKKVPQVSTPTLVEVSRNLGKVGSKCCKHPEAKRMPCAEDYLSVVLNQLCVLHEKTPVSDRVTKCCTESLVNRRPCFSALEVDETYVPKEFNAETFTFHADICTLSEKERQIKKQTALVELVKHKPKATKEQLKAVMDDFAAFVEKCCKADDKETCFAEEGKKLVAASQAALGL
Excerpt: Fluorescence polarisation assay was used to examine the affinity binding of the imaging agent towards the cMet target as well as the binding properties related to plasma proteins. The principle of the fluorescence polarisation method can briefly be described as follows:
(§1) The change of the polarization value was used to assess the binding of the Compound to human serum albumin as a low change of polarisation value is associated to low binding being appropriate for in-vivo use.

in vitro = conditions: mouse, plasma
Excerpt: as §1

[2] = system: HT-29 human colon carcinoma tumour (c-Met expressing); assay: In vivo optical imaging of HT-29 tumour-bearing nude mice; parameters: species or system mouse; conditions: HT-29 s.c. tumours in female BALB c/A nude mice, i.v., 635 nm excitation
Excerpt: Female BALB c/A nude (Born) mice were used in the study. The use of the animals was approved by the local ethics committee. BALB c/A nude is an inbred immunocompromised mouse strain with a high take rate for human tumours as compared to other nude mice strains. The mice were 8 weeks old upon arrival and with a body weight of approx. 20 grams at the start of the study. The animals were housed in individually ventilated cages (IVC, Scanbur BK) with HEPA filtered air. The animals had ad libitum access to “Rat and Mouse nr. 3 Breeding” diet (Scanbur BK) and tap water acidified by addition of HCl to a molar concentration of 1 mM (pH 3.0).
The colon cancer cell HT-29 is derived from human colon carcinomas and is reported to express c-Met according to Zeng et al [Clin. Exp. Metastasis, 21, 409-417. (2004)]. The cell line was proven to be tumorigenic when inoculated subcutaneously into nude mice [Flatmark et al, Eur. J. Cancer 40, 1593-1598 (2004)].
HT-29 cells were grown in McCoy's 5a medium (Sigma #M8403) supplemented with 10% fetal bovine serum and penicillin/streptomycin. Stocks were made at passage number four (P4) and frozen down for storage in liquid nitrogen at 10^7 cells/vial in the respective culture media containing 5% DMSO. On the day of the transplantation, the cells were thawed quickly in 37° C. water bath (approx. 2 min), washed and resuspended in PBS/2% serum (centrifugation at 1200 rpm for 10 min). Thorough mixing of cells in the vials was ensured every time the cells were aspirated into the dosing syringe. A volume of 0.1 ml of cell suspension was injected s.c. at the shoulder and at the back using a fine bore needle (25 G). The animals were then returned to their cages and the tumours were allowed to grow for 13-17 days. The animals were allowed an acclimatisation period of at least 5 days before the inoculation procedure.
All test substances were reconstituted with PBS from freeze-dried powder. A small stack of white printer paper was imaged to obtain a flat field image which was used to correct for illumination inhomogeneities.
For immobilisation during the optical imaging procedure, the animals were anaesthetized in a coaxial open mask to light surgical level anaesthesia with Isoflurane (typically 1.3-2%), using oxygen as the carrier gas. A small piece of skin (3-5 mm) was removed over parts of the tumour and adjacent muscle using a surgical forceps and fine scissors while the animal was anaesthetized. This was done to measure the signal from tumour and muscle without interference from the overlying skin tissue. The wound was covered by applying a liquid, non-fluorescent bandage spray (3M, MN, USA).
The respiration and body temperature of the animal was monitored with a BioVet system (m2m Imaging Corp, NJ, USA) using a pneumatic sensor underneath the animal and a rectal temperature probe. The BioVet system also supplied external heating using a heating mat set to 40° C. to sustain normal body temperature for the duration of the imaging procedure (2 hours). A Venflon catheter was placed in the tail vein for contrast agent administration. Each animal was given one contrast agent injection. The injected volume was 0.1 ml of test compound followed immediately by a 0.2 ml saline flush. Fluorescence images were acquired just prior to injection and then every 30 seconds for 2 hours.
Imaging was performed through a clinical laparoscope adapted to use a light source to excite the reporter and a filtering system to extract the fluorescence component. […]

human serum albumin [3] = target: T2, human serum albumin

Question: For `CCN(CCCS(=O)(=O)O)c1ccc2c(c1)OC(C(C)(C)C)=C/C2=C\C=C\C1=[N+](CCCCCC(=O)NCCCC[C@H](NC(=O)CNC(=O)CNC(=O)CNC(=O)[C@@H](NC(=O)CNC(=O)[C@H](CCC(=O)O)NC(=O)[C@@H](NC(=O)[C@H](CCC(=O)O)NC(=O)[C@H](Cc2ccc(O)cc2)NC(=O)[C@@H]2CSSC[C@H](NC(=O)[C@H](CO)NC(=O)CNC(=O)[C@H](C)NC(C)=O)C(=O)N[C@@H](Cc3ccc(O)cc3)C(=O)N[C@H]3CSSC[C@H](NC(=O)[C@H](CCC(=O)O)NC(=O)[C@H](Cc4ccccc4)NC(=O)[C@H](CCCNC(=N)N)NC(=O)[C@@H]4CCCN4C(=O)[C@@H]4CCCN4C(=O)CNC(=O)[C@H](CO)NC3=O)C(=O)N[C@@H](Cc3c[nH]c4ccccc34)C(=O)N2)[C@@H](C)O)[C@@H](C)O)C(N)=O)c2ccc(S(=O)(=O)[O-])cc2C1(C)C` [Compound 3] (Ac-AGSCYCSGPPRFECWCYETEGTGGGK(X3)-NH2; disulfide 4-16, 6-14), which Kd (human c-Met/Fc chimera) is on record?
Answer: 0.5 nM

Question: And the fraction unbound (human serum albumin [1])?
Answer: 0.73

Question: What about the remaining at 2 h (in vitro) of the same compound?
Answer: > 95%

Question: What about the “Average tumour:muscle ratio (2 hours p.i.)” value [2] of the same compound?
Answer: 1.67

Question: What about the “Binding human serum albumin (Biacore)” value (human serum albumin [3]) of the same compound?
Answer: Low
